For one assay, the target named is T1, OB-Ra (Mus musculus, UniProt P48356).
T1 construct: expressed in transfected cells; host or cells: COS-7
T1 sequence (P48356 22-894 isoform P48356-2 limits assumed): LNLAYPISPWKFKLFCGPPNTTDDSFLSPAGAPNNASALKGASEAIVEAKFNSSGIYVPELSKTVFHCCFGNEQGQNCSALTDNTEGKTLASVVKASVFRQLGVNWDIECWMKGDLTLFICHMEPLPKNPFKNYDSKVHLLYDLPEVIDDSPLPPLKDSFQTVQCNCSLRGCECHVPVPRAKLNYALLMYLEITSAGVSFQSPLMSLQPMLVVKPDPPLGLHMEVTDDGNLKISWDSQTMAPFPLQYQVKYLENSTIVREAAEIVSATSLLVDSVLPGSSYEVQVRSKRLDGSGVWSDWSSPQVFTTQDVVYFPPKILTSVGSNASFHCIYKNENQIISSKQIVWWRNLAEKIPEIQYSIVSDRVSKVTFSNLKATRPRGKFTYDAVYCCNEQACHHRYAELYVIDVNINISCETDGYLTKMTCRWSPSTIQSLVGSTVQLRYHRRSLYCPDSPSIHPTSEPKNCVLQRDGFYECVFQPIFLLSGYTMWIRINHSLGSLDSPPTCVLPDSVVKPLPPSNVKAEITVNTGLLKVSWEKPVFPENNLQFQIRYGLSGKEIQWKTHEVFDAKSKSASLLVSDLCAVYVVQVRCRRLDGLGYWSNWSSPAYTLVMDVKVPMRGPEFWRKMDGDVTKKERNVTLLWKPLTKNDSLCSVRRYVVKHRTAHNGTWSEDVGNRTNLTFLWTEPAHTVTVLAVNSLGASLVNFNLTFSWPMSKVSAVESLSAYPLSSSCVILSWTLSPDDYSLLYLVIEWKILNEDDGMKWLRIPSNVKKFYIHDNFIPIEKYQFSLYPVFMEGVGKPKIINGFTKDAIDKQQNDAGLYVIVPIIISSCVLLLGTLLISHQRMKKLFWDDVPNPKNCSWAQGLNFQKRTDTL
Kind of assay: Inhibition of AP-OB fusion protein binding by COS-7 cells transfected with OB receptor. The conditions noted are these: 30 nM unlabelled mouse leptin. An excerpt: (§1) Initial experiments to determine the mechanism of action of LEP(116–130) utilized two highly sensitive in vitro bioassays routinely used to assess leptin binding and receptor activation (see e.g., White, et al., 1997. Proc. Natl. Acad. Sci. U.S.A. 94: 10657–10662). An alkaline phosphatase (“AP”)-leptin (“OB”) fusion protein (“AP-OB”) was used to measure inhibition of leptin binding in the absence or presence of recombinant mouse leptin (positive control) or peptide, by COS-7 cells transfected with the long (signaling) form of the mouse OB receptor (“OB-RL”). Signal transduction assays were done in GT1–7 cells cotransfected with AP reporter and OB-RL constructs. Secreted alkaline phosphatase (“SEAP”) activity in response to stimulation with mouse leptin or peptide was measured by chemiluminescence.
Two days after transfection, COS-7 cells were incubated with 1 nm human AP-OB fusion protein and bound AP activity was determined by chemiluminescence using the Great EscApe alkaline phosphatase detection kit as described by the manufacturer (CLON-TECH).
COS-7 cells were transfected with expression vector for OB-Ra. Two days after transfection, the cells were incubated with 1 nM human AB-OB fusion protein in the absence or presence of 30 nM mouse leptin, 300 μM LEP(116–130) or LEP(146–160). Bound AP activity was determined as has been described. See., e.g., Kamohara et al., 1997 Nature 389: 374–377.

Another assay deals with T2, OB-Rb (Mus musculus, UniProt P48356).
T2 construct: full-length leptin receptor (OB-Rb), the receptor isoform predominantly expressed in the hypothalamus; expressed in transfected cells; host or cells: GT1-7
T2 sequence (P48356 22-1162): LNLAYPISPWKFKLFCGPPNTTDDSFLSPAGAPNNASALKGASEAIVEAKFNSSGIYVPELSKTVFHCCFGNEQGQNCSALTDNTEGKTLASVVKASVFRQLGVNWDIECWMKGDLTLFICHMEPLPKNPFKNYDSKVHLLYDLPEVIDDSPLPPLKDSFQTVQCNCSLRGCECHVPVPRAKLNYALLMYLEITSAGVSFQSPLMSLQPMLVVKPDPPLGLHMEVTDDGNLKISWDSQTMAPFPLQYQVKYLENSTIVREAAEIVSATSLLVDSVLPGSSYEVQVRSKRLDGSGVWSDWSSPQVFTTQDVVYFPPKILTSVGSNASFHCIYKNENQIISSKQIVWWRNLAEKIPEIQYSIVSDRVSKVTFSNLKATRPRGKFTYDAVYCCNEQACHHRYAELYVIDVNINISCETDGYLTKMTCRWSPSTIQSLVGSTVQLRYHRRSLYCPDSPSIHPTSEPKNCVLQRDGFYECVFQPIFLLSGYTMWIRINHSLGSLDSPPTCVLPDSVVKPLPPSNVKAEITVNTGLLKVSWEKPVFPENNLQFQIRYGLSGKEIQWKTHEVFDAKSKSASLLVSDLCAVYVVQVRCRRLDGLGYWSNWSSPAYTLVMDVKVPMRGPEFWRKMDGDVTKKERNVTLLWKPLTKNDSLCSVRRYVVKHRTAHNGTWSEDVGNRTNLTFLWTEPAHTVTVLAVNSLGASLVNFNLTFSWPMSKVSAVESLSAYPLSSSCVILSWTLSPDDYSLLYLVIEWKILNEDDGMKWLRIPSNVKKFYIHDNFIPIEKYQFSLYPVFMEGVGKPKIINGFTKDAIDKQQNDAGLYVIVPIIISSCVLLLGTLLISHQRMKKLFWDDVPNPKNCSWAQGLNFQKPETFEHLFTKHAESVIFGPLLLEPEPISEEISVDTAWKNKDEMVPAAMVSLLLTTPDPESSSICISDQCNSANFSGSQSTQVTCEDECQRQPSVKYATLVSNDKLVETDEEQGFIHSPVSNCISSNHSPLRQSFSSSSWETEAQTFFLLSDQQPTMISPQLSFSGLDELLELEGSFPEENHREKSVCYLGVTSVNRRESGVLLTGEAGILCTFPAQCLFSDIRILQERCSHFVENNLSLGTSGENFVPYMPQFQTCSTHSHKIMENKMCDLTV
In words: SEAP reporter gene signal transduction assay in GT1–7 cells cotransfected with HRRE-SEAP and OB-Rb. Type of assay: cell-based. The conditions noted are these: 6 nM mouse leptin, 24 h.
Description: as §1
Two days after transfection, the cells were stimulated with mouse leptin or leptin-related synthetic peptides for 24 hours. Growth media were harvested and SEAP activity was determined by chemiluminescence as described for AP-OB binding studies.
COS-7 and GT1–7 cells were cultured in DMEM supplemented with 10% fetal bovine serum, and transfected by the lipofectamine method. […] Supernatants were collected and SEAP reporter activities were measured by chemiluminescence using the GreatEscApe alkaline phosphatase detection kit as described by the manufacturer (CLONTECH). […]

The values below come from patent publication US7208572B2, “Leptin-related peptides” (Albany Medical College, priority 1998, dated 2007).

B1: mouse leptin: recombinant mouse leptin used as positive control in binding and SEAP assays (protein, listed as Mus musculus)
chain: MCWRPLCRFLWLWSYLSYVQAVPIQKVQDDTKTLIKTIVTRINDISHTQSVSAKQRVTGLDFIPGLHPILSLSKMDQTLAVYQQVLTSLPSQNVLQIANDLENLRDLLHLLAFSKSCSLPQTSGLQKPESLDGVLEASLYSTEVVALSRLQGSLQDILQQLDVSPEC
In the case of B1, the “Competition of bound AP-OB” value with OB-Ra was “efficiently competed”. In addition, the “Increase in SEAP activity” value with OB-Rb was determined as 11 fold.
